Assay results taken from US7847064B2, “Methods and compositions for regulating gene expression in plant cells” (Donald Danforth Plant Science Center, priority 2004, dated 2010).

B1: A5A5GE: (2 × SEQ ID NO: 101 (A5)) + SEQ ID NO: 103 (GE) (protein, listed as Oryza sp.)
chain: EILSLPEDLDLCAAGGGDGPSLSDENDEEEILSLPEDLDLCAAGGGDGPSLSDENDEEKLLSSIEQACDICRLKKLKCSKEKPKCAKCLKNNWECRYSPKTKRSPLTRAHLTEVESRLERLEQLFLLIFPREDLDMILKMDSLQDIKALLTGLFVQDNVNKDAVTDRLASVETDMPLTLRQHRISATSSSEESSNKGQRQLTVSGGSRRISWPECVVPETQCAMKRKEKKAQKEKDKLPVSTTTVDDHMPPIMQCEPPPPEAARIHEVVPRFLSDKLLETNRQKNIPQLTANQQFLIARLIWYQDGYEQPSDEDLKRITQTWQQADDENEESDTPFRQITEMTILTVQLIVEFAKGLPGFAKISQPDQITLLKAFSSEVMMLRVARRYDAASDSVLFANNQAYTRDNYRKAGMAYVIEDLLHFCRCMYSMALDNIHYALLTAVVIFSDRPGLEQPQLVEEIQRYYLNTLRIYILNQLSGSARSSVIYGKILSILSELRTLGMQNSNMCISLKLKNRKLPPFLEEIWDVADMSHTQPPPILESPTNL
modifications: A combination of the Gal4 protein and Ecdysone receptor
B2: AGE: SEQ ID NO: 6 (A) + SEQ ID NO: 103 (GE) (protein)
chain: MGHRRAHSEILSLPEDLDLCAAGGGDGPSLSDENDEELFSMFLDVEKLNSTCGASSEAEAESSSAAAKLLSSIEQACDICRLKKLKCSKEKPKCAKCLKNNWECRYSPKTKRSPLTRAHLTEVESRLERLEQLFLLIFPREDLDMILKMDSLQDIKALLTGLFVQDNVNKDAVTDRLASVETDMPLTLRQHRISATSSSEESSNKGQRQLTVSGGSRRISWPECVVPETQCAMKRKEKKAQKEKDKLPVSTTTVDDHMPPIMQCEPPPPEAARIHEVVPRFLSDKLLETNRQKNIPQLTANQQFLIARLIWYQDGYEQPSDEDLKRITQTWQQADDENEESDTPFRQITEMTILTVQLIVEFAKGLPGFAKISQPDQITLLKAFSSEVMMLRVARRYDAASDSVLFANNQAYTRDNYRKAGMAYVIEDLLHFCRCMYSMALDNIHYALLTAVVIFSDRPGLEQPQLVEEIQRYYLNTLRIYILNQLSGSARSSVIYGKILSILSELRTLGMQNSNMCISLKLKNRKLPPFLEEIWDVADMSHTQPPPILESPTNL
modifications: This sequence was artificially derived and/or created by the inventors.; A combination of the Gal4 protein and Ecdysone receptor
B3: RF2b: bZIP transcription factor isolated through interaction with RF2a, SEQ ID NO:5 (protein)
chain: MQEPKHTDPAAMRGAHHRRARSEVAFRLPDDLDLGGGGAGAFDEIGSEDDLFSTFMDIEKISSGPAAAGGSDRDRAAETSSPPRPKHRHSSSVDGSGFFAAARKDAAASLAEVMEAKKAMTPEQLSDLAAIDPKRAKRILANRQSAARSKERKARYITELERKVQTLQTEATTLSAQLTLFQRDTTGLSAENAELKIRLQAMEQQAQLRDALNDALKQELERLKLATGEMTNSNETYSMGLQHVPYNTPFFPLAQHNAARQNGGTQLPPQFQPPRPNVPNHMLSHPNGLQDIMQQDPLGRLQGLDISKGPLVVKSESSSISASESSSTF
modifications: This sequence was artificially derived and/or created by the inventors.
B4: RF2a: rice bZIP transcription factor, SEQ ID NO:4 (protein)
chain: MNREKSPIPGDGGDGLPPQATRRAGPPAAAAAAEYDISRMPDFPTRNPGHRRAHSEILSLPEDLDLCAAGGGDGPSLSDENDEELFSMFLDVEKLNSTCGASSEAEAESSSAAAHGARPKHQHSLSMDESMSIKAEELVGASPGTEGMSSAEAKKAVSAVKLAELALVDPKRAKRIWANRQSAARSKERKMRYIAELERKVQTLQTEATTLSAQLALLQRDTSGLTTENSELKLRLQTMEQQVHLQDALNDTLKSEVQRLKVATGQMANGGGMMMNFGGMPHQFGGNQQMFQNNQAMQSMLAAHQLQQLQLHPQAQQQQVLHPQHQQQQPLHPLQAQQLQQAARDLKMKSPMGGQSQWGDGKSGSSGN
modifications: This sequence was artificially derived and/or created by the inventors.

How the values were obtained:
[1] = system: 5XG-35S:GUS; assay: MOF induced GUS activity in Arabidopsis plants with VGE, AGE or A5A5GE; type: in vivo, Arabidopsis thaliana; details: for activation of GUS expression, T2 generation plants: induced with MOF, plant lines #11, #11, #18; for activation of GUS expression, T1 generation plants: soil drench 1:10,000 dilution of MOF (61.3 μM) for 60 hours
Experimental: In this Example, Arabidopsis thaliana Col-0 plants were transformed with A. tumefaciens bacterium (strain GV3101) containing effector constructs comprising the CsVMV promoter operably linked to a nucleic acid sequence (SEQ ID NO:104) encoding the GE protein, plus (i) a nucleic acid sequence encoding the VP16 acidic activation domain of the herpes simplex virus, (ii) a sequence (SEQ ID NO:9) encoding the full RF2a acidic domain, or (iii) a sequence (2×SEQ ID NO:102) encoding a dimer of the A5 minimal acidic domain of RF2a (“A5A5”). The foregoing VP16 acidic domain-, RF2a acidic domain-, and A5A5 domain-encoding sequences were oriented to express such domains at the N-terminal of the GE protein. FIG. 28 refers to these constructs as VGE, AGE, and A5A5GE, respectively.
The foregoing effector constructs were prepared using standard DNA cloning and PCR procedures, and plasmids containing nucleic acid sequences encoding the VP16 acidic domain, the full length RF2a acidic domain (SEQ ID NO:6), the A5A5 domain (2×SEQ ID NO:101), and the GE domain (SEQ ID NO:103). Those of ordinary skill in the art will appreciate, however, that such effector sequences (and derivatives thereof) may also be constructed synthetically using standard procedures. The reporter construct described in Example 17 above, 5XG-35S:GUS, was used in this Example.
Next, plasmids containing the effector and reporter constructs described above were transferred by electroporation into A. tumefaciens strain GV3101. Agrobacterium isolates that contained the respective plasmids were used to transform A. thaliana Col-0 using a standard floral dip method (Clough and Bent, 1998). Seeds from the T1 generation were collected and germinated in Murashige and Skoog medium (Murashige and Skoog, 1962) containing a selective component (hygromycin B (30 μg/mL).
The seedlings that survived the selection were grown in soil in a growth chamber and allowed to self-fertilize. Next, T2 generation seeds were collected and germinated in Murashige and Skoog medium, which contained hygromycin B (30 μg/mL). The seedlings that survived the selection in a 3:1 segregation pattern were grown in soil in a growth chamber (under 12 hours of light/12 hours of dark per day, at 22° C., 50% humidity).
Analysis of T1 Generation Plants—In this Example, 22 T1 plants were analyzed for methoxyfenozide (MOF) induced gene expression. […] The supernatants were analyzed for GUS enzymatic activity as described in Example 16 above.
Analysis of T2 Generation Plants—A total of 16 different plants from a T2 generation plant line (having a segregation of the reporter/effector constructs of 3:1), wherein each plant contained a VGE, AGE, or A5A5GE effector construct, were induced with MOF and analyzed for GUS activity (as described above). […]

[2] = system: Box II, Box IIm1 and Box IIm2 elements; assay: Surface Plasmon Resonance binding (BIAcore 2000); details: for DNA binding behavior (association and dissociation): 1:1 binding with a mass transfer model
Experimental: To compare the binding affinities of RF2a and RF2b with the Box II element and its mutants, real time Surface Plasmon Resonance (“SPR”) measurements were conducted using a BIAcore 2000 instrument. The binding affinities of RF2a and RF2b to these DNA targets were measured on chips on which biotin labeled-Box II, -Box IIm1 and -Box IIm2 elements were immobilized.
The association and de-association constants were determined using BIAevaluation 3.1 software—using 1:1 binding with a mass transfer model. […] Furthermore, the DNA binding behavior of RF2a and RF2b are quite different from each other. […] The differences in the affinity of RF2a to the Box II element and its mutants, however, are not as dramatic as the differences of RF2b, while the relative order of affinities to the different target elements is the same for both proteins (FIG. 8).

[3] = system: E(Box IIm1) promoter; assay: BY-2 protoplast transient assay, reporter pE(Box IIm1)::GUS with RF2a/RF2b effectors; type: cell-based, tobacco; details: co-transfection, BY-2 protoplasts
Description: (§1) To illustrate the biological relevance of the differences in the binding affinities described above, the pE::GUS, pE(Box IIm1)::GUS and pE(Box IIm2)::GUS constructs were used as reporters in BY-2 protoplast transient assays. In these assays, CaMV 35S::RF2a, CsVMV::RF2b and CaMV 35S::RF2a/CsVMV::RF2b were used as effectors. All results were normalized against the GFP internal control. The relative GUS activities of different sets of transfection assays are shown in FIG. 9 for the Box IIm1 element, and FIG. 10 for the Box IIm2 element.

[4] = system: E(Box IIm2) promoter; assay: BY-2 protoplast transient assay, reporter pE(Box IIm2)::GUS with RF2a/RF2b effectors; type: cell-based, tobacco; details: co-transfection, BY-2 protoplasts, normalized against GFP
Description: as §1

[5] = system: E fragment of the RTBV promoter; assay: Co-transfection of E::GUS with RF2a and/or RF2b constructs in BY-2 protoplasts; type: cell-based, tobacco
Description: Nevertheless, the E fragment may be further stimulated by co-transfecting the BY-2 protoplasts with constructs that encode the RF2a and/or RF2b transcription factors. In this Example, the E fragment was activated in tobacco BY-2 protoplasts by co-transfection of E::GUS with CsVMV::RF2b, CaMV 35S::RF2a and CaMV 35S::RF2a/CsVMV::RF2b using methods well-known in the art.

[6] = system: transgenic rice and tobacco plants; details: Yin et al., 1997; Petruccelli et al., 2001; cited from earlier work
[7] = system: Nicotiana tabacum cv. Xanthi NN; assay: Phenotype of transgenic tobacco plants overexpressing RF2a or RF2a mutants; type: in vivo; details: CaMV 35S promoter driven, T1 generation, greenhouse
Description: (Yin et al., 1997; Petruccelli et al., 2001). […] Fifteen or more independent transgenic tobacco lines were developed with the constructs described below through Agrobacterium-mediated transformation.
Plasmids for Agrobacterium-mediated transformation—The fusion genes described above relating to the plant expression constructs comprising RF2a deletion mutants were released from pMON999-derived plasmids using NotI (blunted) and cloned into the binary vector pGA-E::GUS (Petruccelli et al., 2001) using the blunt HindIII site (downstream of a CaMV 35S promoter sequence). The final plasmids were named pGA-E::GUS/P-35S::ΔP, pGA-E::GUS/P-35S::ΔQ, pGA-E::GUS/P-35S::ΔPΔA and pGA-E::GUS/P-35S::ΔPΔQ. A plasmid encoding full-length RF2a, p35S::RF2a, was also constructed using the methods described herein.
Tobacco transformation—the plasmids described above were introduced into Agrobacterium tumefaciens strain LBA4404 and used for tobacco transformation. Leaf discs from Nicotiana tabacum cv. Xanthi NN were transformed with the various plasmids following the protocol of Horsch et al. (1988). At least 15 independent transgenic lines were produced with each gene construct. Transgenic plants were self-fertilized, and T1 seeds were collected. The T1 seeds were germinated on Murashige and Skoog medium (Murashige and Skoog, 1962) with kanamycin (100 mg/L) selection, and Kan^r seedlings were grown in a greenhouse for observation.
The phenotype caused by 35S::RF2a-ΔPΔA was similar to, but less severe than, the phenotype caused by 35S::RF2a-3Δ. […] (FIG. 19(C)).

Row | Molecule | activation of GUS expression, T2 generation plants [1] | activation of GUS expression, T1 generation plants [1] | DNA binding behavior (association and dissociation) [2] | activity of the E(Box IIm1) promoter compared with the E wild type promoter [3] | increase of promoter activity of E(Box IIm1) ([3]; normalized against GFP) | increase of promoter activity of E(Box IIm2) [4] | activation of the E fragment by over-expression [5] | binding affinities to the Box II, Box IIm1 and Box IIm2 elements ([2]; compared to RF2b, biotin labeled elements immobilized on chips) | appearance and reproduction of overexpressing plants [6] | phenotype of transgenic tobacco plants [7]
1 | B1 | activated GUS expression (in the T2 generation plants) in the presence of the MOF inducer as strong as VP16 | activated GUS expression in the presence of the MOF inducer as strong as VP16 | – | – | – | – | – | – | – | –
2 | B2 | activated GUS expression (in the T2 generation plants) in the presence of the MOF inducer as strong as VP16 | activated GUS expression in the presence of the MOF inducer as strong as VP16 | – | – | – | – | – | – | – | –
3 | B3 | – | – | binds slowly to the DNA target and releases from the target relatively quickly | as high as the expression of the E wild type promoter in BY-2 protoplasts | about 7 fold | about 5.8 fold | activated above a strong background expression | – | – | –
4 | B4 | – | – | bind rapidly to the DNA target and slowly dissociates from the target | – | – | – | activated above a strong background expression | relatively higher binding affinities | normal in appearance and reproduction | did not exhibit abnormal phenotypes
